According to IntAct's records for PubMed 20010697:

B1: Zinc finger protein ZFPM1 (Mus musculus), O35615 (parent)
chain: MSRRKQSNPRQIKRSLRDMEAGEEAKAMDSSPKEQEAPDPEAPAIEEPPSPPREDVSPPAVPAPPESPEDPEDMEGQELEMRPQDEEKEEKEEEAAMASPWSGPEELELALQDGQRCVRARLSLTEGLSWGPFYGSIQTRALSPEREEPGPAVTLMVDESCWLRMLPQVLTEEAANSEIYRKDDALWCRVTKVVPSGGLLYVRLVTEPHGAPRHPVQEPVEPGGLAPVHTDIQLLPQQAGMASILATAVINKDVFPCKDCGIWYRSERNLQAHLLYYCASRQRAGSPVSATEEKPKETYPNERVCPFPQCRKSCPSASSLEIHMRSHSGERPFVCLICLSAFTTKANCERHLKVHTDTLSGVCHNCGFISTTRDILYSHLVTNHMVCQPGSKGEIYSPGAGHPAAKLPPDSLAGFQQHSLMHSPLVPADKAPTPSSGLDSKAEVTNGETRVPPQNGGSSESPAAPRTIKVEAAEEPEATRASGPGEPGPQAPSRTPSPHSPNPVRVKTELSSPTPGSSPGPGELTMAGTLFLPQYVFSPDAGTTTVPTAPQASEILAKMSELVHNRLQQGAGSSGAAGTPTGLFSGTKGATCFECEITFNNINNFYVHKRLYCSGRRAPEDPPTVRRPKAATGPARAPAGAAAEPDPSRSSPGPGPREEEASGTTTPEAEAAGRGSEGSQSPGSSVDDAEDDPSRTLCEACNIRFSRHETYTVHKRYYCASRHDPPPRRPPAPTTAPGPAAPALTAPPVRTRRRRKLYELPAAGAPPPAAGPAPVPVVPSPTAELPSSPRPGSASAGPAPALSPSPVPDGPIDLSKRPRRQSPDAPTALPALADYHECTACRVSFHSLEAYLAHKKYSCPAAPLRTTALCPYCPPNGRVRGDLVEHLRQAHGLQVAKPAASPGAEPRTPAERAPRDSPDGRAPRSPSPAPENTPSDPADQGARTPSKGPPAPAPAPGGGGGHRYCRLCNIRFSSLSTFIAHKKYYCSSHAAEHVK
partner: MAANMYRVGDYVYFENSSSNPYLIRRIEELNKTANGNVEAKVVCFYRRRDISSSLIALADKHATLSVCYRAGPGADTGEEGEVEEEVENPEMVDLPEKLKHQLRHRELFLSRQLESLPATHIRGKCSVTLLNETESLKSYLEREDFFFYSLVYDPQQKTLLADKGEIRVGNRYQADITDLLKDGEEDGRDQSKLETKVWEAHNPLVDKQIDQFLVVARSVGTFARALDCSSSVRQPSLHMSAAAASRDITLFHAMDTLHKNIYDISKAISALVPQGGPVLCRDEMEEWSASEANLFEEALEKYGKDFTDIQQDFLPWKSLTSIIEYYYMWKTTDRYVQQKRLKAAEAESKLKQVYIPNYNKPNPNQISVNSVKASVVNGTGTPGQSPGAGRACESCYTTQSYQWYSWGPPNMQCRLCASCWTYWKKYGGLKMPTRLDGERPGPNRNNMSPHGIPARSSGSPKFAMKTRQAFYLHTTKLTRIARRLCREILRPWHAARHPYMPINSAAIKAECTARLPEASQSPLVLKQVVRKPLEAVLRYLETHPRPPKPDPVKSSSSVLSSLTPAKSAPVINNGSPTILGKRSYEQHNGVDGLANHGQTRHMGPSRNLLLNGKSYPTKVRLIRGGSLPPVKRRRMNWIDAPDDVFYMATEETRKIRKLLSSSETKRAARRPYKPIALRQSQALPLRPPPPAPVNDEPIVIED

Variants of: B1
Details: with mta1_rat Mta1, Q62599

effect of a mutation on the interaction | Variant
disrupting interaction | K5A
disrupting interaction | R3A
